Data published in publication doi:10.1101/2025.05.20.655083 (2025).
Where no end group is shown, it is not given here. The star is where a group is joined. FITC = O=C1OC2(c3ccc(O)cc3Oc3cc(O)ccc32)c2ccc(NC(=S)*)cc21; Ahx = NCCCCCC(=O)O

Key:
Assay in all cases: FP
[1] = target: mouse importin α2 ΔIBB (mouse, UniProt P52293 70-529)
[2] = target: human importin α5 ΔIBB (human)
[3] = target: human importin α1 ΔIBB (human)
[4] = target: human importin α7 ΔIBB (human)
Sequence of human importin α7 ΔIBB (human) (chain, as listed by the source mutant): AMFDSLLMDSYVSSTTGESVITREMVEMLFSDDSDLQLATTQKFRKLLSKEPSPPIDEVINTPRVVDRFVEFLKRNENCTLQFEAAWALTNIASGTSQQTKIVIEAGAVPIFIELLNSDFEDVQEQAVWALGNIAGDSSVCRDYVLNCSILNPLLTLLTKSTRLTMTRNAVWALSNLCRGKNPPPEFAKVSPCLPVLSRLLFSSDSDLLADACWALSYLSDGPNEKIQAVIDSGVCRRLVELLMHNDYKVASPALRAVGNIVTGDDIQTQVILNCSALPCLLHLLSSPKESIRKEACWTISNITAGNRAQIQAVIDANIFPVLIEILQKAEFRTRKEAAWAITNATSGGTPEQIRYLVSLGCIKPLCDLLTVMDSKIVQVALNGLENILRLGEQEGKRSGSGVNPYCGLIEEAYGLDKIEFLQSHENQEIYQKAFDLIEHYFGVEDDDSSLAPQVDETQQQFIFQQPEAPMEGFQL

Sequence of human importin α5 ΔIBB (human) (chain, as listed by the source mutant): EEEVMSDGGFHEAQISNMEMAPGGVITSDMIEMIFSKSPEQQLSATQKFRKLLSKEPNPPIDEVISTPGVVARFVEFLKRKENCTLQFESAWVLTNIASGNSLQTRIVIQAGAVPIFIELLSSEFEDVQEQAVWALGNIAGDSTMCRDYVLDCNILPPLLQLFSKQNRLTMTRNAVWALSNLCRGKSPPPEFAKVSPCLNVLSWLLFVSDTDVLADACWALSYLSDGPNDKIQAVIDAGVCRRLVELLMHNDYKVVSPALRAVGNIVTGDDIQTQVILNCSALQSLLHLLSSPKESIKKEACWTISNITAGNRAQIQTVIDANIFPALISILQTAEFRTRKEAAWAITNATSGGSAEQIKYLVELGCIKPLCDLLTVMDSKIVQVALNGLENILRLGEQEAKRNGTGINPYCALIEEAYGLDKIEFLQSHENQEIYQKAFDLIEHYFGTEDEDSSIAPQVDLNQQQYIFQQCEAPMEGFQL

{FITC-Ahx}-IAEYKRRHNIGSDGLPNKRRRCLF [BSB PyV-LTA;NLS peptide (Black Sea Bass polyomavirus large tumor antigen residues 660-683)]
Kd [1]: 4 nM
Kd [2]: 12 nM
Kd [3]: 31 nM
Kd [4]: 2 nM
